Experimental data published in the supplement of paper PMC10065799, “High-throughput profiling of sequence recognition by tyrosine kinases and SH2 domains using bacterial peptide display” (eLife, 2023).

How the values were obtained:
c-Src SH2 = assay: SH2 binding enrichment of the phosphorylated peptide, bacterial display (enrichment ratio); higher = better substrate or ligand; peptides without Tyr show the background
Grb2 SH2 = Grb2 SH2 (UniProt P62993); assay: as above
SHP2-C SH2 = assay: as above
FGFR3 = FGFR3 (UniProt P22607); assay: phosphorylation enrichment, bacterial display (enrichment ratio); higher = better substrate or ligand; peptides without Tyr show the background
MERTK = MERTK (UniProt Q12866); assay: as above
Fer (mouse) = assay: as above
Fes = Fes (UniProt P07332); assay: as above
c-Src = assay: as above
Fyn = Fyn (UniProt P06241); assay: as above
Jak2 = Jak2 (UniProt O60674); assay: as above
Hck = Hck (UniProt P08631); assay: as above
c-Abl (mouse) = assay: as above
FGFR1 = FGFR1 (UniProt P11362); assay: as above
EPHB1 = EPHB1 (UniProt P54762); assay: as above
EPHB2 = EPHB2 (UniProt P29323); assay: as above
AncSZ = assay: as above
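Wherever SH2 binding enrichment of the phosphorylated peptide, bacterial display is given: peptide library displayed on the E. coli surface as eCPX fusions, selected cells deep-sequenced, score is each peptide's frequency after selection divided by its frequency in the input.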
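Wherever phosphorylation enrichment, bacterial display is given: 11-residue human phosphosite peptides and single-mutation variants displayed on the E. coli surface, counted by deep sequencing, each peptide's frequency after selection divided by its frequency in the unselected input library; frequency after pTyr selection over input frequency; kinase dosed for 20-30% of maximal phosphorylation in three min.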

EPHB2, sequence (P29323 whole entry, looked up): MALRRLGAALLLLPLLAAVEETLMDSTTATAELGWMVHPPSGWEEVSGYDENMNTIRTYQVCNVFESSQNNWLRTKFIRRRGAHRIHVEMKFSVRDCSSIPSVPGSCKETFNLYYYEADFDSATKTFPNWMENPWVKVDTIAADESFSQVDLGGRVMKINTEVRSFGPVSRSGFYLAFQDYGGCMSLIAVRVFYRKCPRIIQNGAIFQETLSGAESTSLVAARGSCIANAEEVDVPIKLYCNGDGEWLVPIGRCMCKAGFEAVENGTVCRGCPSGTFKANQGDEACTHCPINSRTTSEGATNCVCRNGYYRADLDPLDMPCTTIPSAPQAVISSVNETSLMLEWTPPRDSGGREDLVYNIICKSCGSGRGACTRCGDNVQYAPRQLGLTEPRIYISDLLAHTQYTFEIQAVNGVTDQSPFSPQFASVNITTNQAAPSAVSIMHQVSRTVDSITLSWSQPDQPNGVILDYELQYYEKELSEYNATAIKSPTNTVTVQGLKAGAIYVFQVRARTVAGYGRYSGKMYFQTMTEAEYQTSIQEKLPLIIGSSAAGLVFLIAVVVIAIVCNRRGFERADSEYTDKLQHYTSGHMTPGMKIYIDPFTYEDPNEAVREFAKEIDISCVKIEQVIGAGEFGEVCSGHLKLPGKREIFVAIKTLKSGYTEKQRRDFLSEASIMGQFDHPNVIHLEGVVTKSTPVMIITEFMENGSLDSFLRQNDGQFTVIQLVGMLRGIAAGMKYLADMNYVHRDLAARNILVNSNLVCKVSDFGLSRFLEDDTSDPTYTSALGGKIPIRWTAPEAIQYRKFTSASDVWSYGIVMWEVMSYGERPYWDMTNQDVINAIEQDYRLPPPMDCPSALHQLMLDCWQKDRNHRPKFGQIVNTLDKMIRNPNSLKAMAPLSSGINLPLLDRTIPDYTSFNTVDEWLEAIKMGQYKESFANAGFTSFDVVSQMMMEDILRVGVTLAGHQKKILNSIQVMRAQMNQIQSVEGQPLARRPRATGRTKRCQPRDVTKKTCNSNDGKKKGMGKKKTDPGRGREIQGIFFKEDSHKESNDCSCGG
FGFR1, sequence (P11362 whole entry, looked up): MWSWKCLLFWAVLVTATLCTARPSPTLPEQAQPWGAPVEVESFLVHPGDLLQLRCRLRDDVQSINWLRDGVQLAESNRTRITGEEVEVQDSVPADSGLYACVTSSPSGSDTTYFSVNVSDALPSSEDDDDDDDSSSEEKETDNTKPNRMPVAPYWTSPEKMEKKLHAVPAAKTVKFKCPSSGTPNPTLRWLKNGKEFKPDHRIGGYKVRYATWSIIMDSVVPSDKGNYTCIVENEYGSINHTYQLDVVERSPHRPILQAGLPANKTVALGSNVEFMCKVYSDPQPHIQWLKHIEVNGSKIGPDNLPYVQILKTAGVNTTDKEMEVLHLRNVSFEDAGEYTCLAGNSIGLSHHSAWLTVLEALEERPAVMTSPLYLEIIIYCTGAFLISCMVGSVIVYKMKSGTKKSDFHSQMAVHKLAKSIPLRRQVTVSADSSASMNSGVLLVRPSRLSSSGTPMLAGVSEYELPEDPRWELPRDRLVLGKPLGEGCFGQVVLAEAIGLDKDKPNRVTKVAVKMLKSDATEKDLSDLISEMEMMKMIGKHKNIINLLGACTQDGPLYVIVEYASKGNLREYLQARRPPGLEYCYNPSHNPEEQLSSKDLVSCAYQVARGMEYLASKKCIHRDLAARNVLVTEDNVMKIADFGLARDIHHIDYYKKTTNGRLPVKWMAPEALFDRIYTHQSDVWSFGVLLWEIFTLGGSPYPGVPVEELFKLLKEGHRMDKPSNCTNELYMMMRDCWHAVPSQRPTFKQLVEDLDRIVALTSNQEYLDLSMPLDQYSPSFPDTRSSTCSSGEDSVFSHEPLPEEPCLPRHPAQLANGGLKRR
Hck, sequence (P08631 whole entry, looked up): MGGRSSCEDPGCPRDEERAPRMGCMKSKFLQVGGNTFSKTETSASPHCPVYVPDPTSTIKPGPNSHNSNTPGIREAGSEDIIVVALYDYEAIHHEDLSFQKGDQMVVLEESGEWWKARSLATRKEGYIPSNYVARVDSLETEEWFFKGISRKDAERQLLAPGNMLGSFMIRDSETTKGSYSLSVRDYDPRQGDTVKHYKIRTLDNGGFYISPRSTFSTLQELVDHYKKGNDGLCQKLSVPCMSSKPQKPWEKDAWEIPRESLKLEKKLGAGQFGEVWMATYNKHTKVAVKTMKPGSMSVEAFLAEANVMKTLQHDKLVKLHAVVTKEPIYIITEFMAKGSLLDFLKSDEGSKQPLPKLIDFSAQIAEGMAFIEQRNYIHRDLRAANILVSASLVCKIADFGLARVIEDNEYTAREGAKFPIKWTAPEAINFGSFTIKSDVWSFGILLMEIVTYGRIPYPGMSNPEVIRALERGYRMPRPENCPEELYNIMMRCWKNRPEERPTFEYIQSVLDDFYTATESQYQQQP
Fes, sequence (P07332 whole entry, looked up): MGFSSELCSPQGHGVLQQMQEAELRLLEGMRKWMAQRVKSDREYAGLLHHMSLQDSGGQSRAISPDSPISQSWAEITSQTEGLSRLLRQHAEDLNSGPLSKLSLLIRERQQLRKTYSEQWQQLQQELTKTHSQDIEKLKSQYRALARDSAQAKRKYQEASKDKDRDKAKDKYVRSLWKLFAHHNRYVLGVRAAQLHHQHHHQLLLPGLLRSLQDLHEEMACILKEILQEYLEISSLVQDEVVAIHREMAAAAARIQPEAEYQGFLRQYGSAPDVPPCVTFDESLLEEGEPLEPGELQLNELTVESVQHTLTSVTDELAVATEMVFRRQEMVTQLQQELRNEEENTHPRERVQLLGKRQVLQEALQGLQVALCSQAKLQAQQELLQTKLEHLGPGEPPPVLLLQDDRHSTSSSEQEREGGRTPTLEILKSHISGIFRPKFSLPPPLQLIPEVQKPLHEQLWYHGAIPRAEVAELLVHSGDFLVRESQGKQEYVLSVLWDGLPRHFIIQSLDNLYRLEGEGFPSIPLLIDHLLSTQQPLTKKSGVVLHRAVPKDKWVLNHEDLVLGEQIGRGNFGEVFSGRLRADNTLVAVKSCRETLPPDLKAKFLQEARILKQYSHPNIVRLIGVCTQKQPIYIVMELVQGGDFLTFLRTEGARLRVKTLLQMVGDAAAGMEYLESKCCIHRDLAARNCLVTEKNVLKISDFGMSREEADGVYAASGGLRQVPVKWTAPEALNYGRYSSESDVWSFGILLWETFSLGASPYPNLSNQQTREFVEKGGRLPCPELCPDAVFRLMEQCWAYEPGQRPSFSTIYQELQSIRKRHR
MERTK, sequence (Q12866 whole entry, looked up): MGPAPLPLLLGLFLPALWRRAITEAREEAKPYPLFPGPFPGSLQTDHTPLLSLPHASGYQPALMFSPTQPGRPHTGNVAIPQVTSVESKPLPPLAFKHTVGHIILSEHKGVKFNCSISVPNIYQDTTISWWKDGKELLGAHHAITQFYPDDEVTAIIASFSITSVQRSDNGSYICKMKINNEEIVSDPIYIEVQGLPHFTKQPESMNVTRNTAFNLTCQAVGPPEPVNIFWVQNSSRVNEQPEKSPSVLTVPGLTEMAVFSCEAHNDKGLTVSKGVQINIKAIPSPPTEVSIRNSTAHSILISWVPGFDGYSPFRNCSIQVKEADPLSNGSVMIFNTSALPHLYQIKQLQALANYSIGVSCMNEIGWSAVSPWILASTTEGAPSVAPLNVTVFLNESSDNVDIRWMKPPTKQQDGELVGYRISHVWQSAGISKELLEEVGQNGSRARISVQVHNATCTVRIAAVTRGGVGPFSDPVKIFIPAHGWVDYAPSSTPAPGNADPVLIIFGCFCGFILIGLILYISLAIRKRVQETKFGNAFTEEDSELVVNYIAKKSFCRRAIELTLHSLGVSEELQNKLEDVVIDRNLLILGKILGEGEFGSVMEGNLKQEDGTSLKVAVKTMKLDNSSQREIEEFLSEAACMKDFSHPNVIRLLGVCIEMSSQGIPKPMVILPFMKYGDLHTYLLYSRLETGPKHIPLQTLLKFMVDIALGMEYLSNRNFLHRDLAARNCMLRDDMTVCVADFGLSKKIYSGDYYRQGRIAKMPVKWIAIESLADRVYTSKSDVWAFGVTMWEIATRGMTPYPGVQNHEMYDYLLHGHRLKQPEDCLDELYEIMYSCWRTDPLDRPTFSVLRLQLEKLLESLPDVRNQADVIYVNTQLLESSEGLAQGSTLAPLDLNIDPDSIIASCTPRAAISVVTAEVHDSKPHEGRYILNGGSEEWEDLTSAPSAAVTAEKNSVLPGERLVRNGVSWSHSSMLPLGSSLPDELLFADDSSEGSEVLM
Fyn, sequence (P06241 whole entry, looked up): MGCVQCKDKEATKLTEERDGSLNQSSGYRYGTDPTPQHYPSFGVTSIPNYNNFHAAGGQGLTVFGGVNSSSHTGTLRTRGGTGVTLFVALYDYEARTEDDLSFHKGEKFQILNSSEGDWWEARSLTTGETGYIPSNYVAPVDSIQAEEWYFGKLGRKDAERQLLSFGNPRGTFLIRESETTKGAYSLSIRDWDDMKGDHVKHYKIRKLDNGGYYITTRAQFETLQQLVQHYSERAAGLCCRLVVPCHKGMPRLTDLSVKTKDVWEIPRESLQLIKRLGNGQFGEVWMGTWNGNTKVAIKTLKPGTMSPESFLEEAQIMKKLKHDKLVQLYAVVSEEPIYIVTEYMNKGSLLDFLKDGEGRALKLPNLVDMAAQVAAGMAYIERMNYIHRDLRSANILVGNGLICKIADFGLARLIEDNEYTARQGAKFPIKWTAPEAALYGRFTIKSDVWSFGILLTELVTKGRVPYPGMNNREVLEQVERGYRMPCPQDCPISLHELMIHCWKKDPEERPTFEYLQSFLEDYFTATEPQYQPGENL

| SH2 binding enrichment (c-Src SH2) | SH2 binding enrichment (Grb2 SH2) | SH2 binding enrichment (SHP2-C SH2) | Sequence | phosphorylation enrichment (FGFR3) | phosphorylation enrichment (MERTK) | phosphorylation enrichment (Fer (mouse)) | phosphorylation enrichment (Fes) | phosphorylation enrichment (c-Src) | phosphorylation enrichment (Fyn) | phosphorylation enrichment (Jak2) | phosphorylation enrichment (Hck) | phosphorylation enrichment (c-Abl (mouse)) | phosphorylation enrichment (FGFR1) | phosphorylation enrichment (EPHB1) | phosphorylation enrichment (EPHB2) | phosphorylation enrichment (AncSZ) |
| --- | --- | --- | --- | --- | --- | --- | --- | --- | --- | --- | --- | --- | --- | --- | --- | --- |
| 4.51 | 0.85 | 0.715 | HIKHNYECLVF [XRCC5_Y416_YF] | 1.09 | 0.382 | 0.665 | 1.09 | 0.53 | 0.709 | 0.547 | 0.821 | 0.4 | 0.796 | 1.86 | 1.44 | 1.31 |
| 0.432 | 0.698 | 0.669 | EEKKKYYDTKI [CASP5_Y103] | 0.515 | 0.366 | 0.465 | 0.853 | 0.34 | 0.479 | 0.875 | 0.4 | 0.618 | 0.468 | 0.442 | 0.421 | 0.818 |
| 0.546 | 0.7 | 0.65 | LARHMYDKEFF [MET_Y1230_D1228H_YF] | 0.55 | 0.559 | 0.29 | 1.08 | 0.688 | 0.404 | 0.646 | 0.399 | 0.524 | 0.606 | 0.355 | 0.438 | 0.78 |
| 1.44 | 0.906 | 1.09 | RKVLVYDKLNV [ROR2_Y624_N620K] | 0.44 | 2 | 1.25 | 0.852 | 1.82 | 1.71 | 0.548 | 10.3 | 0.854 | 0.49 | 1.37 | 0.794 | 0.875 |
| 0.211 | 0.654 | 0.366 | DWLRRYLENGK [HLA-A_Y195_E190D] | 0.708 | 0.864 | 1.02 | 1.04 | 0.617 | 0.642 | 0.986 | 0.705 | 0.584 | 0.728 | 0.723 | 0.946 | 1.1 |
